{"source": "the DeepSol protein solubility set"}
{"assay": "soluble on expression in E. coli; label from the status in PepcDB or PDB records"}
{"sequence": "MSLSSITNVAATAGVSIATVSRVLSGKRGKDDDIARRVREAAKQLGYSVNYAASALRSDVTKTIGLVIPSATEPFSAQLLDEIEPTIDTESQQLLLGIGATQEAQAERIESLVNRHVDGLIVVPAAGADLAGTLNQYANTLPIVQICGRQTAPRVSVVGIDENAAMEAIVKHLAEQGIASAAYMAGDELSFESAELFATFHTHMRTYGLVTSENWNQFGERTVQRGFDCAMRLFNGPLVQPEAVVCADDAIAFGVMVAFDALGIRVPEDVLVVGYHDSAIARTTMPRLTSVRAPFERIVSECLRLLASGPAGGAAETAAAPGGSVRAPRVMLAPQLIVRDSSVFREGHHHHHH", "soluble on expression in E. coli": "soluble"}
{"sequence": "MAPWKIEEVKTLKGLIKSKPVVAIVDMMDVPAPQLQEIRDKIRDKVKLRMSRNTLIIRALKEAAEELNNPKLAELANYVERGAAILVTDMNPFKLYKLLEENKSPAPVRGGQIAPCDIKVEKGSTGMPPGPFLGELKSVGIPAAIEKGKIAIKEDKVVVKKGEVVSPKLAAVLDRLGIKPIKVGLNILAVYEDGIIYTPDVLKVDEEKLLADI", "soluble on expression in E. coli": "soluble"}
{"sequence": "MDAIILQENIEGLLSLVRMLLPDGGSAGCVYLDDLSALQRSIHEKINDLYSQRGETPEQDATLCLAILQGYNVSMYANPEDEERKQAVLTRSLSLLDVLPPSLLKQQLSAVCYGMQELCEIN", "soluble on expression in E. coli": "not soluble"}
{"sequence": "MGSDKIHHHHHHMLTRQRPLHGIGTTQAAVLKHLRRNGIASRAELAELCGVTQAAVSMMTRDLIARGIVIQGARRQSQRGAPHIDLMLAGNIGYALGVHANSYSLTVTLLDFCGNRIGEQQLEGPYDRFSDIQTAIKSLRTDLLTSNGIDEGLLIGAAVAMPTRFRHGTAFLDLAEEVVSWAGSDLASTLRETLDCPVMIENDANAAAMGELALGNASGHDNFAYLYLSEGIGSGIIIGKELYRGNLGNAGEVGALRARGLSRPSFDDLAAWCKEHQGHIPKGRSSDQWTAYLQANPTVLDAWLRRAGPELATLAFMVTAVLAPSAIYIGGTLPRLVREKLAPWLDFSTSNPFDGARVIQPDILIPQISAVDAVAFGAAAMILHSVPGNPGL", "soluble on expression in E. coli": "not soluble"}
{"sequence": "MDQNVPISKKLWNIVRFLLYMIRKGVSKNKLIADFNATLKRGKNLMFHQRRRVHAGSTASAALNATSATASSRQEYEFSCSNTPNYSFPFSNMAFMRKKSHNNLFTCGQTPQTLDDDVAAARAVLELLNGVGEKGNVTPADLTVALSPYFPGFGQTPLVRPLRVTDSPFPLTPENGDVANGHVDKAADDFIKKFYKNLNQQKKMIEFS", "soluble on expression in E. coli": "not soluble"}
{"sequence": "MAHHHHHHMAEQFTEDIGVVNKRLLEPVPFVKTNNCIKDVDADLFIRSYATHLKLHNKITYPKWCTFVKTGKGRKLAPLNEDWYFIRASSILRRLYLHPDIGVGFLRRQFSSKQRRGVAPNHTSLASGKILRSILQQLENLGYVEQNPKKKGRRLTTKGENAINNFARYINKKVYNKE", "soluble on expression in E. coli": "not soluble"}
{"sequence": "MGSDKIHHHHHHMLISSRIVRSSLVNVPLRLSRCFTQAHRACKEEEVNSPLSSAAEQPEQKYTHFGSKTVLKSTKQKLVGDVFSSVANRYDLMNDVMSLGIHRLWKDHFINKLDAGKRPNSTTPLNFIDVAGGSGDIAFGLLDHAESKFGDTESTMDIVDINPDMLKEGEKRAMEQGKYFKDPRVRFLVSNGEKLEEIDSDSKDIYTVSFGIRNFTDIQKGLNTAYRVLKPGGIFYCLEFSKIENPLMDFAYQQWAKVLPVMGSMIANDYDSYQYLVESIERFPDQETFKSMIEKAGFKSAGYESLTFGICAIHWGIKV", "soluble on expression in E. coli": "not soluble"}
{"sequence": "MLRRVNEQGPVQGRAQAPVKPDDSVPPELARARVWILTDGKAGDENQCIGIAEALGLAYETRRIPDGRPLTWMAPWGPIDPRDAPGRAGGLLQGPLPHLLIASGRRAVPYLRAVRRASDEKTFTAFLKDPRTGHDTADFIWVPDYDDLRGPNVFTTLTAPHPVSRARLDAARTTPDPRLARLPWPRIAVLIGGDSRHLRYRKADMQRLVRDLTKLAEGGCSLMLTVSRRTPPDLRKALEDLVKDKGGFFWDGSGENPYVGMLAIADHIVVTSDSANMVGEAASTGVPLLLFDLPRTYIRHRRMFAGLAMAGALKPFIGRLEALRYAPIDATPEIAAALAEGYQRHRARLAGEVAAVPRPAEPTSAPRGPFLEHHHHHH", "soluble on expression in E. coli": "not soluble"}
{"sequence": "MGSDKIHHHHHHMMLGPEGGEGYVVKLRGLPWSCSIEDVQNFLSDCTIHDGVAGVHFIYTREGRQSGEAFVELESEDDVKLALKKDRESMGHRYIEVFKSHRTEMDWVLKHSGPNSADSANDGFVRLRGLPFGCTKEEIVQFFSGLEIVPNGITLPVDPEGKITGEAFVQFASQELAEKALGKHKERIGHRYIEVFKSSQEEVRSYSDPPLKFMSVQRPGPYDRPGTARRYIGIVKQAGLDRMRSGAYSAGYGGYEEYSGLSDGYGFTTDLFGRDLSYCLSGMYDHRYGDSEFTVQSTTGHCVHMRGLPYKATENDIYNFFSPLNPVRVHIEIGPDGRVTGEADVEFATHEEAVAAMSKDRANMQHRYIELFLNSTTGASNGAYSSQVMQGMGVSAAQATYSGLESQSVSGCYGAGYSGQNSMGGYD", "soluble on expression in E. coli": "not soluble"}
{"sequence": "MIEQFNFDIRLIFAILNGKVSAAINRKLYRNFRQNGLEISPEQWTVLIFLWEKDGVTQQELCNATFKDKPSMTRLIDNMERQHLVVRISDKKDRRTNLIHLTKDGKELEEKARIIAGQTLKEALHGITLEELSIGQEVLKKVFYNTKD", "soluble on expression in E. coli": "not soluble"}
{"sequence": "DITGIPTGFNELDKMTAGFQRNDLIIVAARPSVGKTAFALNIAQNVATKTDENVAIFSLEMGAEQLVMRMLCAEGNINAQNLRTGALTSDDWQKLTIAMGTLSNSGIYIDDTPGVRVNEIRSKCRRLKQETGLGMIVIDYLQLIAGSGRGGENRQQEVSEISRSLKALARELEVPVIALSQLSRSVEQRQDKRPMMSDI", "soluble on expression in E. coli": "not soluble"}
{"sequence": "MGSDKIHHHHHHMKVEVNSQALADAVAWTTRVIDARPATPILAGIRLEAIDGTLQLSAFNYAISARHHIEAGVDEAGSVLVLGKLLADITKSLPAAKTYLSTDGSTMTITSGKSTFTMQLMPESEYPDLPVVPTKLGQVDSPTFAQAVNQASVAVSREENRPVLTGIRVQFQGDKVIMSSTDRFRLARSSFTWTPEDATISTTALVRGSLLRDMARSLDEHQNVTIDFDADNPSLLGFENAGRVSTSQLIDGEFPAVDRLYADEYPIHAVINKQALIDAIKRVSLVAERNAPIRMVFSGQELTLSAGTADEAQAKEILDIDMDGEDITVAFNPSYLVDGLSAISEPFVRMKMTTAVKPVEFNGQQEADSDESMDYRYLLVPMRFNN", "soluble on expression in E. coli": "not soluble"}
{"sequence": "MSKPFKLNSAFKPSGDQPEAIRRLEEGLEDGLAHQTLLGVTGSGKTFTIANVIADLQRPTMVLAPNKTLAAQLYGEMKEFFPENAVEYFVSYYDYYQPEAYVPSSDTFIEKDASVNEHIEQMRLSATKAMLERRDVVVVASVSAIYGLGDPDLYLKMMLHLTVGMIIDQRAILRRLAELQYARNDQAFQRGTFRVRGEVIDIFPAESDDIALRVELFDEEVERLSLFDPLTGQIVSTIPRFTIYPKTHYVTPRERIVQAMEEIKEELAARRKVLLENNKLLEEQRLTQRTQFDLEMMNELGYCSGIENYSRFLSGRGPGEPPPTLFDYLPADGLLVVDESHVTIPQIGGMYRGDRARKETLVEYGFRLPSALDNRPLKFEEFEALAPQTIYVSATPGNYELEKSGGDVVDQVVRPTGLLDPIIEVRPVATQVDDLLSEIRQRAAINERVLVTTLTKRMAEDLTEYLEEHGERVRYLHSDIDTVERMEIIRDLRLGEFDVLVGINLLREGLDMPEVSLVAILDADKEGFLRSERSLIQTIGRAARNVNGKAILYGDKITPSMAKAIGETERRREKQQKYNEEHGITPQGLNKKVVDILALGQNIAKTKAKGRGKSRPIVEPDNVPMDMSPKALQQKIHELEGLMMQHAQNLEFEEAAQIRDQLHQLRELFIAAS", "soluble on expression in E. coli": "soluble"}
{"sequence": "MELFKDIKNLGKLVRLERIFNRESEKTVIVPMDHGVSNGPIKGLIDIRKTVNDVAEGGANAVLLHKGIVRHGHRGYGKDVGLIIHLSGGTAISPNPLKKVIVTTVEEAIRMGADAVSIHVNVGSDEDWEAYRDLGMIAETCEYWGMPLIAMMYPRGKHIQNERDPELVAHAARLGAELGADIVKTSYTGDIDSFRDVVKGCPAPVVVAGGPKTNTDEEFLQMIKDAMEAGAAGVAVGRNIFQHDDVVGITRAVCKIVHENADVEEALKEIRKK", "soluble on expression in E. coli": "soluble"}
{"sequence": "MENILEVNQIKKYYKIKTGLLQKTQYVKAVDDVSFSIKKGQTFGLVGESGCGKSTLGKVIIRLEDATSGSIIVNGEDITRLQGKKLRKSRQQYQMIFQDPYASLNPMQMVGDIISEPILNYKKLPKEEIKKEVLYLLKCVGLSEDAYYKYAHEFSGGQRQRVGIARALALRPSLIVADEPVSALDVSVQSQVLNLLKDLQEQFNLSYLFIAHDLSVVKHISDVIGVMYLGHIVEIASDKEIYENPKHPYTKALISSIPQIDKHNNNRIILKGELPSPSNPPQGCPFHTRCPIAQDMCKKSMPELKDIGNEHQVACFYVDKVGDLND", "soluble on expression in E. coli": "not soluble"}
{"sequence": "MGSDKIHHHHHHMNNYNDTIRNLDNIVYKPNNLMITNVKEEKQNAEYAGCIFHLNNKTIRFRKSKITPNKIGQFVSFWEKGDNMQNQAFSYNAAPDLLVITCIDDNKLGQFIFPKEILLKEKILRTENQKGKMAMRIYPIWDTPVSNQAKKSQLWQIQYFVDLSNHNNLTIDELLNLYS", "soluble on expression in E. coli": "not soluble"}
{"sequence": "MSAVALPRVSGGHDEHGHLEEFRTDPIGLMQRVRDELGDVGTFQLAGKQVVLLSGSHANEFFFRAGDDDLDQAKAYPFMTPIFGEAVVFDASPERRKEMLHNAALRGEQMKGHAATIEDQVRRMIADWGEAGEIDLLDFFAELTIYTSSACLIGKKFRDQLDGRFAKLYHELERGTDPLAYVDPYLPIESFRRRDEARNGLVALVADIMNGRIANPPTDKSDRDMLDVLIAVKAETGTPRFSADEITGMFISMMFAGHHTSSGTASWTLIELMRHRDAYAAVIDELDELYGDGRSVSFHALRQIPQLENVLKETLRLHPPLIILMRVAKGEFEVQGHRIHEGDLVAASPAISNRIPEDFPDPHDFVPARYEQPRQEDLLNRWTWIPFGAGRHRCVGAAFAIMQIKAIFSVLLREYEFEMAQPPESYRNDHSKMVVQLAQPAAVRYRRRTGVHHHH", "soluble on expression in E. coli": "soluble"}
{"sequence": "MNIDIKEAHRRMLYLLQSFDTVCKKHDIDYWLDYGTLLGAIRHQGFIPWDTDTDVGMLRSDYALFLEKGVPELPQDIFFQTPETEPAMAPWSWLVEARLRDRHSRYVPDKKTPAEPMQFGGLQLDLFIYDWDGKYENALSNSFERNLSESRIHLRLDEVEYLDTARFEGVEFPVPSGYDAYLTRCYGDYRTFPPEEERQIPEVVAWSVLEHHHHHH", "soluble on expression in E. coli": "soluble"}
{"sequence": "MFTCKVNEHITIRLLEPKDAERLAELIIQNQQRLGKWLFFAENPSSADTYRETIIPDWRRQYADLNGIEAGLLYDGSLCGMISLHNLDQVNRKAEIGYWIAKEFEGKGIITAACRKLITYAFEELELNRVAICAAVGNEKSRAVPERIGFLEEGKARDGLYVNGMHHDLVYYSLLKREWEGEKLEHHHHHH", "soluble on expression in E. coli": "not soluble"}
